From patent US20100260668A1 (published 2010)
“And” between values parts separate entries of the source, which are not always exact repeats. Equal values may be shown once. Values belong to the binder of their own block, whether it stands above or below them.

Key:
[1] = biological target: T1, VEGF (VEGF 1-165 aa, R&D Systems 293-VE-010) (UniProt P15692 27-191); assay: Direct bind ELISA, VEGF coated on plate; VEGF domain N-term., HC long/LC short
T1 construct: bought reagent; also called vascular endothelial growth factor
T1 sequence (P15692 other isoform, or with tags, fused parts or gaps limits assumed): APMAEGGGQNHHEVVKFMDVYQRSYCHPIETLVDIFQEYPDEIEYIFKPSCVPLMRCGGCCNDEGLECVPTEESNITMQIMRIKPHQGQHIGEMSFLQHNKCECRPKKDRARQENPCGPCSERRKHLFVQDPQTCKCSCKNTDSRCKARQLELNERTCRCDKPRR

[2] = biological target: T1, VEGF (VEGF 1-165 aa, R&D Systems …); assay: Direct bind ELISA, VEGF coated on plate; VEGF domain C-term., HC long/LC short
[3] = biological target: T2, ErbB3 (ErbB3 ECD/FC Chimera-His tag, R&D 348-RB-050) (UniProt P21860 20-643, limits assumed); assay: direct bind ELISA, coated antigen; parent reference antibody
T2 construct: extracellular domain; Bought antigen coated on the ELISA plate

[4] = biological target: T1, VEGF (VEGF 1-165 aa, R&D Systems …); assay: Direct bind ELISA, VEGF coated on plate; VEGF domain N-term., HC short/LC long
[5] = biological target: T1, VEGF (VEGF 1-165 aa, R&D Systems …); assay: Direct bind ELISA, VEGF coated on plate; VEGF domain C-term., HC short/LC long

EC50 [1]: 96.2 nM
B1: DVD526 (bispecific antibody, human IgG1, lambda)
heavy: not shown
light: DIQMTQSPSSLSASVGDRVTITCRASQDVSTAVAWYQQKPGKAPKLLIYSASFLYSGVPSRFSGSGSGTDFTLTISSLQPEDFATYYCQQSYTTPPTFGQGTKVEIKRTVAAPQAVVTQESALTTSPGETVTLTCRSSTGAVTTSNYANWVQEKPDHLFTGLIGGTNNRAPGVPARFSGSLIGDKAALTITGAQTEDEAIYFCALWYSNHWVFGGGTKLTVLGQPKAAPSVTLFPPSSEELQANKATLVCLISDFYPGAVTVAWKADSSPVKAGVETTTPSKQSNNKYAASSYLSLTPEQWKSHRSYSCQVTHEGSTVEKTVAPTECS
notes: DVD-Ig; N-term; AB070 (VEGF), C-term; AB073 (DLL4); HC linker long, LC linker short; also called DVD-Ig DVD526; DVD526H/DVD526L

EC50 [2]: 21.8 nM
B2: DVD525 (bispecific antibody, human IgG1, kappa)
heavy: not shown
light: QAVVTQESALTTSPGETVTLTCRSSTGAVTTSNYANWVQEKPDHLFTGLIGGTNNRAPGVPARFSGSLIGDKAALTITGAQTEDEAIYFCALWYSNHWVFGGGTKLTVLGQPKAAPDIQMTQSPSSLSASVGDRVTITCRASQDVSTAVAWYQQKPGKAPKLLIYSASFLYSGVPSRFSGSGSGTDFTLTISSLQPEDFATYYCQQSYTTPPTFGQGTKVEIKRTVAAPSVFIFPPSDEQLKSGTASVVCLLNNFYPREAKVQWKVDNALQSGNSQESVTEQDSKDSTYSLSSTLTLSKADYEKHKVYACEVTHQGLSSPVTKSFNRGEC
notes: DVD-Ig; N-term; AB073 (DLL4), C-term; AB070 (VEGF); HC linker long, LC linker short; also called DVD-Ig DVD525; DVD525H/DVD525L

EC50 [1]: 16.7 nM
B4: DVD504 (bispecific antibody, human IgG1, kappa)
heavy: not shown
light: DIQMTQSPSSLSASVGDRVTITCRASQVIRRSLAWYQQKPGKAPKLLIYAASNLASGVPSRFSGSGSGTDFTLTISSLQPEDFATYYCQQSNTSPLTFGQGTKVEIKRTVAAPDIQMTQSSSYLSVSLGGRVTITCKASDHINNWLAWYQQKPGNAPRLLISGATSLETGVPSRFSGSGSGKDYTLSITSLQTEDVATYYCQQYWSIPLTFGAGTKLELKRTVAAPSVFIFPPSDEQLKSGTASVVCLLNNFYPREAKVQWKVDNALQSGNSQESVTEQDSKDSTYSLSSTLTLSKADYEKHKVYACEVTHQGLSSPVTKSFNRGEC
notes: DVD-Ig; N-term; AB071 (VEGF), C-term; AB072 (DLL4); HC linker long, LC linker short; also called DVD-Ig DVD504; DVD504H/DVD504L

Second part, the binder before the results:

B3: AB063 (antibody, human IgG1, kappa, V domains shown)
VH: EVQLVESGGGLVQPGGSLRLSCAASGFTFSIYSMNWVRQAPGKGLEWVSYISSSSSTIYYADSVKGRFTISRDNAKNSLYLQMNSLRDEDTAVYYCARDRGDFDAFDIWGQGTMVTVSS
VL: DIQMTQSPSSLSASVGDRVTITCQASQDITNYLNWYQQKPGKAPKLLIYDASNLETGVPSRFSGSGSGTDFTFTISSLQPEDIATYNCQQCENFPITFGQGTRLEIKR
notes: also called AB063VH
EC50 [3]: 0.87 nM and 0.92 nM and 1.1 nM

B5: DVD510 (bispecific antibody, human IgG1, kappa)
heavy: not shown
light: DIQMTQSPSSLSASVGDRVTITCRASQVIRRSLAWYQQKPGKAPKLLIYAASNLASGVPSRFSGSGSGTDFTLTISSLQPEDFATYYCQQSNTSPLTFGQGTKVEIKRTVAAPSVFIFPPDIQMTQSSSYLSVSLGGRVTITCKASDHINNWLAWYQQKPGNAPRLLISGATSLETGVPSRFSGSGSGKDYTLSITSLQTEDVATYYCQQYWSIPLTFGAGTKLELKRTVAAPSVFIFPPSDEQLKSGTASVVCLLNNFYPREAKVQWKVDNALQSGNSQESVTEQDSKDSTYSLSSTLTLSKADYEKHKVYACEVTHQGLSSPVTKSFNRGEC
notes: DVD-Ig; N-term; AB071 (VEGF), C-term; AB072 (DLL4); HC linker short, LC linker long; also called DVD-Ig DVD510; DVD510H/DVD510L
EC50 [4]: 23.9 nM

B6: DVD509 (bispecific antibody, human IgG1, kappa)
heavy: not shown
light: DIQMTQSSSYLSVSLGGRVTITCKASDHINNWLAWYQQKPGNAPRLLISGATSLETGVPSRFSGSGSGKDYTLSITSLQTEDVATYYCQQYWSIPLTFGAGTKLELKRTVAAPSVFIFPPDIQMTQSPSSLSASVGDRVTITCRASQVIRRSLAWYQQKPGKAPKLLIYAASNLASGVPSRFSGSGSGTDFTLTISSLQPEDFATYYCQQSNTSPLTFGQGTKVEIKRTVAAPSVFIFPPSDEQLKSGTASVVCLLNNFYPREAKVQWKVDNALQSGNSQESVTEQDSKDSTYSLSSTLTLSKADYEKHKVYACEVTHQGLSSPVTKSFNRGEC
notes: DVD-Ig; N-term; AB072 (DLL4), C-term; AB071 (VEGF); HC linker short, LC linker long; also called DVD-Ig DVD509; DVD509H/DVD509L
EC50 [5]: 121 nM

B7: DVD532 (bispecific antibody, human IgG1, kappa, lambda)
heavy: not shown
light: DIQMTQSPSSLSASVGDRVTITCRASQDVSTAVAWYQQKPGKAPKLLIYSASFLYSGVPSRFSGSGSGTDFTLTISSLQPEDFATYYCQQSYTTPPTFGQGTKVEIKRTVAAPSVFIFPPQAVVTQESALTTSPGETVTLTCRSSTGAVTTSNYANWVQEKPDHLFTGLIGGTNNRAPGVPARFSGSLIGDKAALTITGAQTEDEAIYFCALWYSNHWVFGGGTKLTVLGQPKAAPSVTLFPPSSEELQANKATLVCLISDFYPGAVTVAWKADSSPVKAGVETTTPSKQSNNKYAASSYLSLTPEQWKSHRSYSCQVTHEGSTVEKTVAPTECS
notes: DVD-Ig; N-term; AB070 (VEGF), C-term; AB073 (DLL4); HC linker short, LC linker long; also called DVD-Ig DVD532; DVD532H/DVD532L
EC50 [4]: 28.9 nM

B8: DVD502 (bispecific antibody, human IgG1, kappa)
heavy: not shown
light: DIQMTQSPSSLSASVGDRVTITCRASQDVSTAVAWYQQKPGKAPKLLIYSASFLYSGVPSRFSGSGSGTDFTLTISSLQPEDFATYYCQQSYTTPPTFGQGTKVEIKRTVAAPDIQMTQSSSYLSVSLGGRVTITCKASDHINNWLAWYQQKPGNAPRLLISGATSLETGVPSRFSGSGSGKDYTLSITSLQTEDVATYYCQQYWSIPLTFGAGTKLELKRTVAAPSVFIFPPSDEQLKSGTASVVCLLNNFYPREAKVQWKVDNALQSGNSQESVTEQDSKDSTYSLSSTLTLSKADYEKHKVYACEVTHQGLSSPVTKSFNRGEC
notes: DVD-Ig; N-term; AB070 (VEGF), C-term; AB072 (DLL4); HC linker long, LC linker short; also called DVD-Ig DVD502; DVD502H/DVD502L
EC50 [1]: 3.25 nM
